Test results published in PMC6415414.

Settings: N-glycosylation at N74

Substance | stability_or_folding | enzymatic_activity
Candida antarctica lipase B (CaLB): Asn74Ala (CaLB-degl and CaLB-degl-lid), residual activity after 10 min heat incubation | decreases, >50% activity lost at 48 °C and almost inactive at 58 °C, vs 42% relative activity at 58 °C for wt | 
Candida antarctica lipase B (CaLB): Asn74Ala, S. cerevisiae MTP culture supernatant, pNPB assay |  | no change, 94% relative hydrolytic activity
Candida antarctica lipase B (CaLB): Asn74Ala (CaLB-degl), ε-caprolactone polymerization in aqueous toluene |  | increases, Free enzyme: Mn 1100 to 1900 Da, Coligo 13% to 29% (factor 1.7). Immobilized: Mn 5200 to 6700 Da, Coligo 86% to 91%.
Candida antarctica lipase B (CaLB): Asn74Ser, S. cerevisiae MTP culture supernatant, pNPB assay |  | decreases
Candida antarctica lipase B (CaLB): Asn74Ala (CaLB-degl), purified free enzyme, pNPB assay |  | decreases, hydrolytic activity 10.49 to 7.57 µmol(min∙mg)−1
